Bridges are numbered along the chain shown (N, C = ends). Where no end group is shown, it is not given here.
T1: V2R-β2AR chimera (human)
T1 construct: Whole receptor on HEK-293 cells; also called V2-β2AR; V2R-p2AR
T1 chain: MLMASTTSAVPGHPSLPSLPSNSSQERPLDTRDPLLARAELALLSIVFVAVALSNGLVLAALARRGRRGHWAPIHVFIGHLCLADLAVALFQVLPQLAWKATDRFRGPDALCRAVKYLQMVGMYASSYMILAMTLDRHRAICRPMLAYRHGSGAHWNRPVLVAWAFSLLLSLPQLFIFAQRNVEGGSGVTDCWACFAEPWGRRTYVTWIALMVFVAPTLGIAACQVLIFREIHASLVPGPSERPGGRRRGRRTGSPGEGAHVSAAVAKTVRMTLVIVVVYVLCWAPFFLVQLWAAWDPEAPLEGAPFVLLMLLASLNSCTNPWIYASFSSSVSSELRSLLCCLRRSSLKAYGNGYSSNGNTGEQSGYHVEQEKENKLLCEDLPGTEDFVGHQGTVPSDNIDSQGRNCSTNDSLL


How the values were obtained:
[1] = target: β2AR-V2R chimera (Homo sapiens (Human)) (UniProt P07550); test: cell-based or functional assay
[2] = target: wild-type β2AR receptor (β2-adrenergic receptor), HA-tagged (Homo sapiens (Human)) (UniProt P07550); test: cell-based or functional assay
[3] = target: wild-type V2R receptor (vasopressin V2 receptor), HA-tagged (human) (UniProt P30518); test: cell-based or functional assay
V2R-β2AR chimera [4] = target: T1, V2R-β2AR chimera; test: cell-based or functional assay
V2R-β2AR chimera [5] = target: T1, V2R-β2AR chimera; test: [3H]AVP binding to membrane proteins of transfected HEK-293 cells; affinity not given
Protocol: Membrane proteins (10 μg) from transfected HEK-293 cells expressing the V2R and V2R-β_2AR chimera were incubated in PBS containing 2% BSA at room temperature with increasing concentrations of [^3H] […] Binding was terminated by rapid filtration and consecutive washes with ice-cold wash buffer ([…], 50 mM Tris-HCl, pH=7.2).

[6] = scale: % of Vmax measured under Naive conditions

Row | change in receptor phosphorylation 60 min after agonist removal (32P, immunoprecipitation) [1] [% increase] | internalized receptor recycled back to the plasma membrane 60 min after agonist removal (flow cytometry) [1] [%] | internalized receptor recycled back to the plasma membrane 60 min after agonist removal (flow cytometry) [2] [%] | reduction in receptor phosphorylation 60 min after agonist removal (32P, immunoprecipitation) [2] [% reduction] | internalized receptor recycled back to the plasma membrane 60 min after agonist removal (flow cytometry) [3] [%] | reduction in receptor phosphorylation 60 min after agonist removal (32P, immunoprecipitation) [3] [% decrease] | internalized receptor recycled back to the plasma membrane 60 min after agonist removal (flow cytometry) (V2R-β2AR chimera [4]) [%] | reduction in receptor phosphorylation 60 min after agonist removal (32P, immunoprecipitation) (V2R-β2AR chimera [4]) [% reduction] | binding result (V2R-β2AR chimera [5]) | Molecule | impairment of recovery of Vmax of adenylyl cyclase activity one hour after agonist removal (resensitization) [1] [%] | recovery of Vmax of adenylyl cyclase activity one hour after agonist removal (resensitization) [2, 6] | impairment of recovery of Vmax of adenylyl cyclase activity one hour after agonist removal (resensitization) [3] [%] | recovery of Vmax of adenylyl cyclase activity one hour after agonist removal (resensitization) (V2R-β2AR chimera [4]; [6])
1 | 12 | 11 | 65 | 48 | 23 | 3 | 89 | 67 | – | β-arrestin | 66 | 100 | 54 | 102
2 | – | – | – | – | – | – | – | – | binds | CYFQNCPRG-NH2 (peptide, UniProt P01185 20-28, looked up, disulfide 1-6 (inferred); ends not checked; also: tritium label ([3H]AVP), place not given here, mature; only the hormone peptide stood in the assay; also called AVP; [3H]AVP) [arginine vasopressin] | – | – | – | –
